The values that follow come from publication PMC6947831, “Mitochondrial localization of Dictyostelium discoideum dUTPase mediated by its N-terminus” (BMC Research Notes, 2020).

Substrate in series [1]: O=c1ccn([C@H]2C[C@H](O)[C@@H](COP(=O)(O)OP(=O)(O)OP(=O)(O)O)O2)c(=O)[nH]1
In words: stopped-flow absorbance, proton release with cresol red. As to conditions: enzyme 0.15 µM. Format: biochemical, Dictyostelium discoideum. The source says: stopped-flow absorbance, proton release with cresol red on core D. discoideum dUTPase

Substrate in series [2]: O=c1ccn([C@H]2C[C@H](O)[C@@H](COP(=O)(O)OP(=O)(O)OP(=O)(O)O)O2)c(=O)[nH]1
The description is as above. As to conditions: enzyme 0.15 µM. The format is biochemical, Dictyostelium discoideum. The source says: stopped-flow absorbance, proton release with cresol red on full-length D. discoideum dUTPase
The source holds these as a separate data set.

B1: core D. discoideum dUTPase (Dictyostelium discoideum) (protein)
chain: FKVKKLSDKAIIPQRGSKGAAGYDLSSAHELVVPAHGKALAMTDLQIAIPDGTYGRIAPRSGLAWKNFIDCGAGVIDSDYRGNVGVVLFNHSDVDFKVAVGDRVAQLIFERIVTPEPLEVDEIDETQRGAGGFGSTGVKVQN
notes: core lacking residues 1-37, N-terminal GSHM from cloning, E. coli, His-tag removed, homotrimer
Turning to B1, in series [1], the Km came to 0.5 ± 0.1 µM, the Vmax was found to be 84 µM/min, the kcat came out at 9.3 s⁻¹ and the kcat/Km is 1.86e+07 M⁻¹ s⁻¹.

B2: full-length D. discoideum dUTPase (Dictyostelium discoideum) (protein)
chain: MPIEQKYFSLFSNLFKRLTTNNNNNNYLKMAPPNFETFKVKKLSDKAIIPQRGSKGAAGYDLSSAHELVVPAHGKALAMTDLQIAIPDGTYGRIAPRSGLAWKNFIDCGAGVIDSDYRGNVGVVLFNHSDVDFKVAVGDRVAQLIFERIVTPEPLEVDEIDETQRGAGGFGSTGVKVQN
For B2, in series [2], the Km came to 1.0 ± 0.2 µM and the Vmax came to 30 µM/min.

The term Km denotes the concentration of substrate that gives half-maximal velocity. As a reminder, the Vmax is the top rate of the reaction or transport when substrate is in excess. Broadly, the kcat is the number of substrate molecules converted per active site and unit of time at saturation. Usually kcat/Km stands for the turnover number divided by the Michaelis constant.
